According to the supplement of paper PMC12764529:
± gives the half width of the 95% confidence interval.

Columns and labels:
[1] = folding stability dG unfold (combined trypsin and chymotrypsin); higher = more stable
How it was run: (§1)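 Bayesian fitting of sequencing counts gave K50 for each design. Unfolding free energy followed by setting this against a sequence-predicted unfolded-state K50 and a shared folded-state K50, either per protease or with trypsin and chymotrypsin combined. The designs, under 80 residues and lacking cysteine, were digested in a PA-tagged cDNA display format at 11 threefold-diluted protease concentrations and without protease, and only those with AlphaFold2 dimer inter-PAE above 15 were kept.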

[2] = folding stability dG unfold from chymotrypsin proteolysis; higher = more stable
How it was run: as §1

[3] = folding stability dG unfold from trypsin proteolysis; higher = more stable
How it was run: as §1

With “SAGTREQVKAIAREIANEIWDTFPDMRGQKFKVKIKVEPEPNGWVRVKVTIQFPGGVQYTFPIWIPVESAGG [r19_194_TrROS]” the “folding stability dG unfold” value [1] was 16.9 ± 0.962 kJ/mol, the “folding stability dG unfold” value [2] was 18.4 ± 0.962 kJ/mol and the “folding stability dG unfold” value [3] was 12.8 ± 0.46 kJ/mol.
With “SAGGSAGGSAGGGNSLSSVRVVPVTLRTSEPLEQDGDPRPREFTETTVVRITETVPPGLSAGGSAGGSAGGS [r10_118_JUSTAS]” the “folding stability dG unfold” value [1] was 1.49 ± 0.46 kJ/mol, the “folding stability dG unfold” value [2] was 2.38 ± 0.343 kJ/mol and the “folding stability dG unfold” value [3] was 0.305 ± 0.753 kJ/mol.
In the case of “SAGGSAGGSALIIVAPDGFIISIEWPNGKPRTIMMPPDEIDEILEDDGIKDIEIQKLPPGASAGGSAGGSAG [r3_141_TrROS]”, the “folding stability dG unfold” value [1] is reported as 4.79 ± 0.31 kJ/mol, the “folding stability dG unfold” value [2] is reported as 6.22 ± 0.151 kJ/mol and the “folding stability dG unfold” value [3] is reported as 1.62 ± 0.209 kJ/mol.
For “SAGMLEISSDVLKALGIPVGATAEEVKERIQRRLEELGFEVEIPSVVIEELDPETGRVGVRIDLDLRPPSAG [r5_23_TrMRF]”, the “folding stability dG unfold” value [1] was 10.5 ± 0.962 kJ/mol, the “folding stability dG unfold” value [2] was 9.34 ± 1.46 kJ/mol and the “folding stability dG unfold” value [3] was 12.8 ± 0.753 kJ/mol.
In the case of “SAGNFKIDINPENNMIMIKSPNGWFMFPFTYTRTQPEPDPDDPNEWKQRPRTETHYIMMPANDLKDLLNSAG [r5_234_TrROS]”, the “folding stability dG unfold” value [1] is reported as 2.26 ± 1.13 kJ/mol, the “folding stability dG unfold” value [2] is reported as 2.1 ± 1 kJ/mol and the “folding stability dG unfold” value [3] is reported as 2.84 ± 0.711 kJ/mol.
In the case of “SAMSLEDMTPEELEELVKELIEKLREELEKEGKTIKPGETIEIEIEVKGKKLKIKITVDKDGNIKIEVESAG [r14_501_TrROS_Hall]”, the “folding stability dG unfold” value [1] is reported as 12.4 ± 0.385 kJ/mol, the “folding stability dG unfold” value [2] is reported as 12.7 ± 0.351 kJ/mol and the “folding stability dG unfold” value [3] is reported as 12 ± 0.837 kJ/mol.
In the case of “SAGGKTLYVVRITRRVRVDGKLYEVTLTLVAESEEEAEEALRKLAEELEALFPDEIRIEVEKVELPPSAGGS [r16_475_TrROS_Hall]”, the “folding stability dG unfold” value [1] is reported as 23 ± 1.05 kJ/mol, the “folding stability dG unfold” value [2] is reported as 23.8 ± 1 kJ/mol and the “folding stability dG unfold” value [3] is reported as 16.4 ± 0.544 kJ/mol.
For “SAGGSAGGSAGGLRAKIVEIKEVKVKKLYKDPETNEWYEEEKTVKVIKIKIEPAKPGEKISAGGSAGGSAGG [r17_530_TrROS_Hall]”, the “folding stability dG unfold” value [1] was 3.96 ± 0.544 kJ/mol, the “folding stability dG unfold” value [2] was 4.75 ± 0.184 kJ/mol and the “folding stability dG unfold” value [3] was 2.25 ± 0.335 kJ/mol.
In the case of “SAGGIVVGEEGVVRITGPGEPVIIPLPENSEVVEIDVPDDGYVRITLRVDGKTVTVDFPSAPPGLTLSAGGS [r16_635_TrMRF]”, the “folding stability dG unfold” value [1] is reported as 3.88 ± 0.213 kJ/mol, the “folding stability dG unfold” value [2] is reported as 1.49 ± 0.172 kJ/mol and the “folding stability dG unfold” value [3] is reported as 5.62 ± 0.159 kJ/mol.
With “SAGGMTPEELEAAARAAAAALRAELEAGDPDVEVDLEVDPEKGTATFTVTDRATGRPRTLTVPFAELASAGG [r13_354_JUSTAS]” the “folding stability dG unfold” value [1] was 6.41 ± 0.305 kJ/mol, the “folding stability dG unfold” value [2] was 8.1 ± 0.226 kJ/mol and the “folding stability dG unfold” value [3] was 3.64 ± 0.31 kJ/mol.
In the case of “SAGGSAKVKYKKDKNGNTYPVVEEKKKIKLTVKIKIFDKNGKLVKEITFPANMTLEEIEKEIKKLLSAGGSA [r15_309_TrROS_Hall]”, the “folding stability dG unfold” value [1] is reported as 6.75 ± 0.753 kJ/mol, the “folding stability dG unfold” value [2] is reported as 7.47 ± 0.46 kJ/mol and the “folding stability dG unfold” value [3] is reported as 4.87 ± 0.46 kJ/mol.
For “SAGGSAGGSAGMDKDGKWRRIPFMFVNPGDGYIFKWEIWIYPGGNIELEMEIIGPIKPGASAGGSAGGSAGG [r11_226_TrROS]”, the “folding stability dG unfold” value [1] was 17.9 ± 0.46 kJ/mol, the “folding stability dG unfold” value [2] was 20.1 ± 0.255 kJ/mol and the “folding stability dG unfold” value [3] was 13.1 ± 0.544 kJ/mol.
For “SAGGSAGGMTAVEVKEETVPITLTSSFFPGGVPVPGAAVSTITITTTTTIEPPTGKTVKVTVAGSAGGSAGG [r6_424_JUSTAS]”, the “folding stability dG unfold” value [1] was -1.77 ± 0.31 kJ/mol, the “folding stability dG unfold” value [2] was -2.75 ± 0.502 kJ/mol and the “folding stability dG unfold” value [3] was -1.33 ± 0.155 kJ/mol.
With “SAGGGKKTKYVLLTFNPKEVKAEDLEKEILKKGAEIYIGDKPIDPGKGVKEVMKANPNTTFLVKIYDSAGGS [r8_38_TrMRF]” the “folding stability dG unfold” value [1] was 4.68 ± 1.34 kJ/mol, the “folding stability dG unfold” value [2] was 6.72 ± 1.76 kJ/mol and the “folding stability dG unfold” value [3] was 4.66 ± 0.46 kJ/mol.
In the case of “SMTLPANAKAKVTVLVLFYDPETGEATLVKVDYTATFKPDDKGNLVVEVEPSKIEFIGPISLEEAKKIAGSA [r9_423_TrMRF]”, the “folding stability dG unfold” value [1] is reported as 10.7 ± 0.879 kJ/mol, the “folding stability dG unfold” value [2] is reported as 8.84 ± 0.243 kJ/mol and the “folding stability dG unfold” value [3] is reported as 10.8 ± 0.628 kJ/mol.
In the case of “SAGYIIGYPIIEELFNAGKPEEIRKILKEAVEKDPDKIIIIEVPENPEIAKAIEEAFKEEGIPLIIIPESAG [r14_236_TrMRF]”, the “folding stability dG unfold” value [1] is reported as 3.89 ± 0.272 kJ/mol, the “folding stability dG unfold” value [2] is reported as 3.39 ± 0.418 kJ/mol and the “folding stability dG unfold” value [3] is reported as 4.29 ± 0.146 kJ/mol.
With “SIITINFHPGMFHISIYKDGGEKTIPMPWSEIKELLKKGVDKVEIHSPDPGFMNEFQKLVQKEGIPIEIHSA [r9_810_TrROS]” the “folding stability dG unfold” value [1] was 7.95 ± 1.05 kJ/mol, the “folding stability dG unfold” value [2] was 8.87 ± 0.251 kJ/mol and the “folding stability dG unfold” value [3] was 5.95 ± 0.397 kJ/mol.
In the case of “SAGGSAGGSAGGSPKRVTMYFIIPFYILIPKEDADGNNEWVIIPITIIIKIEIELPPGDSAGGSAGGSAGGS [r4_326_TrROS]”, the “folding stability dG unfold” value [1] is reported as 22.9 ± 0.795 kJ/mol, the “folding stability dG unfold” value [2] is reported as 23 ± 0.586 kJ/mol and the “folding stability dG unfold” value [3] is reported as 18.8 ± 0.628 kJ/mol.
With “SAGGGSVSITLELEEEEEIEEIVNEKGIPEPLEKRIKKKVTITISPPPTLSSSSSVTGLAEKAIEEKSAGGS [r16_359_JUSTAS]” the “folding stability dG unfold” value [1] was 0.422 ± 1.3 kJ/mol, the “folding stability dG unfold” value [2] was 2.14 ± 0.289 kJ/mol and the “folding stability dG unfold” value [3] was -1.78 ± 0.92 kJ/mol.
For “SAGGSATAEELADEIANYMADRHGMEVKKIEITDVDNDRVVFRAEVEMPNPNGKKHTHPFTIEIPVSAGGSA [r15_276_TrROS]”, the “folding stability dG unfold” value [1] was 0.945 ± 1.21 kJ/mol, the “folding stability dG unfold” value [2] was 1.27 ± 1.3 kJ/mol and the “folding stability dG unfold” value [3] was -0.401 ± 0.711 kJ/mol.
With “SAGGSAGGSGGKPLLIFTAMNGPEAEELVKKLLEEGGAGPIVAVVIPAPKDDPLFKEFFEKLKSAGGSAGGS [r12_649_TrMRF]” the “folding stability dG unfold” value [1] was 5.63 ± 0.586 kJ/mol, the “folding stability dG unfold” value [2] was 6.17 ± 0.222 kJ/mol and the “folding stability dG unfold” value [3] was 3.91 ± 0.305 kJ/mol.
